Test results reported in article PMC314469, “Protein Interaction Networks by Proteome Peptide Scanning” (PLoS Biology, 2004).

T1: Yfr024 SH3 (LSB3_YEAST), P43603
T1 chain: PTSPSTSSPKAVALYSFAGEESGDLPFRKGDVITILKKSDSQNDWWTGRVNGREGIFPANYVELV

T2: Rvs167 SH3 (RV167_YEAST), P39743
T2 chain: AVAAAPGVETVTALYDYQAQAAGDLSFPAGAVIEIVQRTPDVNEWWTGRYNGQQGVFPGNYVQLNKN

T3: Yhr016c SH3 (YSC84_YEAST), P32793
T3 chain: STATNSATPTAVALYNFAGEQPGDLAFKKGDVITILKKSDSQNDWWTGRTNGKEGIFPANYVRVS

T4: Boi1 SH3 (BOI1_YEAST), P38041
T4 chain: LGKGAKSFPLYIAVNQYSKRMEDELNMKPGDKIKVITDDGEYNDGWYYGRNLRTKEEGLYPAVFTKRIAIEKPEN

T5: Boi2 SH3 (BOI2_YEAST), P39969
T5 chain: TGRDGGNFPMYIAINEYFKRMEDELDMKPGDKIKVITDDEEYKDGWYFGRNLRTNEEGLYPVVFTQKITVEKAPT


How the values were obtained:
Experiment in all cases: SPOT array
[1] = target: T1, Yfr024 SH3 (LSB3_YEAST), P43603
[2] = target: T2, Rvs167 SH3 (RV167_YEAST), P39743
[3] = target: T3, Yhr016c SH3 (YSC84_YEAST), P32793
[4] = target: T4, Boi1 SH3 (BOI1_YEAST), P38041
[5] = target: T5, Boi2 SH3 (BOI2_YEAST), P39969

normalised SPOT signal, Boehringer light units (BLU); mean over the file's lines of this peptide [1]	normalised SPOT signal, Boehringer light units (BLU); mean over the file's lines of this peptide [2]	normalised SPOT signal, Boehringer light units (BLU); mean over the file's lines of this peptide [3]	normalised SPOT signal, Boehringer light units (BLU); mean over the file's lines of this peptide [4]	normalised SPOT signal, Boehringer light units (BLU); mean over the file's lines of this peptide [5]	Binder
6280	5620	1260	2960	55.6	LPAPPPPPRRGPAP [YOR181W 341-354]
15100	3860	6800	125	48.9	LPLPTLPDRQLFQT [YPL115C 570-583]
164	1.6	37.4	66.9	42	LRIPETPVKKSPLV [YJL187C 191-204]
6130	141	251	133	45.2	LKRPILPSKNMDHT [YOR191W 344-357]
197	27.6	49	121	32.9	LQNPLGPERTFLIM [YLR253W 491-504]
296	39.3	184	91.9	99	LKYPYFPTKMSYLQ [YNL059C 229-242]
94.9	26.4	53.5	57.9	10.2	LLAPNSPLKNTKSV [YOR124C 391-404]
3060	189	973	95.2	560	LIMPIYPYRLVSTI [YIL173W 525-538]
541	75.5	286	30300	68.8	LIQPTAPIRDPTRF [YIR029W 48-61]

Continued, binder first:

Binder	normalised SPOT signal, Boehringer light units (BLU); mean over the file's lines of this peptide [1]	normalised SPOT signal, Boehringer light units (BLU); mean over the file's lines of this peptide [2]	normalised SPOT signal, Boehringer light units (BLU); mean over the file's lines of this peptide [3]	normalised SPOT signal, Boehringer light units (BLU); mean over the file's lines of this peptide [4]	normalised SPOT signal, Boehringer light units (BLU); mean over the file's lines of this peptide [5]
LPAPHRPEKYKERF [YGR154C 67-80]	1230	28.8	171	89.9	35.8
LPVPPPPVRPSISF [YDL140C 239-252]	11400	769	3380	37.7	51.2
LLKPETPSKRLVIR [YGL216W 249-262]	1480	25.7	59.7	229	13.3
LIPPLHPLKKQHPK [YIL089W 44-57]	1420	35.3	366	10.8	17.8
LPPPIIPLRKYGHN [YGR233C 693-706]	15900	1930	18400	20400	353
LNSPDLPERTKLRN [YDL225W 445-458]	35600	23300	59600	6110	31.1
LLPPTDPFRRKHEQ [YHR148W 63-76]	314	49.4	224	56.5	15
LRDPVIPIKLAAEK [YGL195W 2564-2577]	68.1	2.2	0	200	28.8
LPVPQLPPKLLVYP [YBR279W 17-30]	4360	64.4	196	375	57.9
LMPPDSPPRMTENT [YBR275C 1790-1803]	1520	1.2	485	47.3	162
LIPPGFPTKNYPPG [YCL010C 185-198]	85.1	0	323	40.1	40.7
LPPPRSPNRPTLSD [YER158C 363-376]	33900	15000	12200	53500	48500
LQIPPLPLKLLTPV [YGR204W 307-320]	1670	78.2	195	113	49.8
